These results are taken from article PMC6275079.

The experiment addresses caveolin-1 (rat (endogenous in cerebellar granule neurons)) (UniProt P41350). The experiment can be described thus: co-IP; anti-caveolin-1 (sc-894) on ImmunoCruz IP/WB Optima matrix; 400 µg of CGN lysate treated with 1% Triton X-100 for 30 min, incubated overnight at 4 °C, washed with Tris-buffered saline; PKA and CaMK-II detected by Western blot in precipitate and supernatant, percent by densitometry.
Chain of UniProt P41350 (P41350 whole entry): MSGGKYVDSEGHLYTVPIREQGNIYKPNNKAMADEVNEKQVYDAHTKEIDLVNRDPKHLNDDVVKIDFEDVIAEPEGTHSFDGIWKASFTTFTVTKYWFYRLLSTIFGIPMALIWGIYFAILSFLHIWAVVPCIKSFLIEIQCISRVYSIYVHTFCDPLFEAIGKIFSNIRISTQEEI

As to “calmodulin-dependent protein kinase II (from UniProt P11275 1-478) (enzyme)”, the percentage of coimmunoprecipitation with caveolin-1 was 39%.
“protein kinase A (from UniProt P27791 1-351) (enzyme)”: the percentage of coimmunoprecipitation with caveolin-1 is 16%.
